Tests used:
GFP1 Right NT-G TAL-PBx = target: T1, GFP1 Right NT-G TAL-PBx (synthetic construct); test: cell_activity; conditions: tags: 3xFlag, SV40 NLS; chain copies: 2
T1 chain: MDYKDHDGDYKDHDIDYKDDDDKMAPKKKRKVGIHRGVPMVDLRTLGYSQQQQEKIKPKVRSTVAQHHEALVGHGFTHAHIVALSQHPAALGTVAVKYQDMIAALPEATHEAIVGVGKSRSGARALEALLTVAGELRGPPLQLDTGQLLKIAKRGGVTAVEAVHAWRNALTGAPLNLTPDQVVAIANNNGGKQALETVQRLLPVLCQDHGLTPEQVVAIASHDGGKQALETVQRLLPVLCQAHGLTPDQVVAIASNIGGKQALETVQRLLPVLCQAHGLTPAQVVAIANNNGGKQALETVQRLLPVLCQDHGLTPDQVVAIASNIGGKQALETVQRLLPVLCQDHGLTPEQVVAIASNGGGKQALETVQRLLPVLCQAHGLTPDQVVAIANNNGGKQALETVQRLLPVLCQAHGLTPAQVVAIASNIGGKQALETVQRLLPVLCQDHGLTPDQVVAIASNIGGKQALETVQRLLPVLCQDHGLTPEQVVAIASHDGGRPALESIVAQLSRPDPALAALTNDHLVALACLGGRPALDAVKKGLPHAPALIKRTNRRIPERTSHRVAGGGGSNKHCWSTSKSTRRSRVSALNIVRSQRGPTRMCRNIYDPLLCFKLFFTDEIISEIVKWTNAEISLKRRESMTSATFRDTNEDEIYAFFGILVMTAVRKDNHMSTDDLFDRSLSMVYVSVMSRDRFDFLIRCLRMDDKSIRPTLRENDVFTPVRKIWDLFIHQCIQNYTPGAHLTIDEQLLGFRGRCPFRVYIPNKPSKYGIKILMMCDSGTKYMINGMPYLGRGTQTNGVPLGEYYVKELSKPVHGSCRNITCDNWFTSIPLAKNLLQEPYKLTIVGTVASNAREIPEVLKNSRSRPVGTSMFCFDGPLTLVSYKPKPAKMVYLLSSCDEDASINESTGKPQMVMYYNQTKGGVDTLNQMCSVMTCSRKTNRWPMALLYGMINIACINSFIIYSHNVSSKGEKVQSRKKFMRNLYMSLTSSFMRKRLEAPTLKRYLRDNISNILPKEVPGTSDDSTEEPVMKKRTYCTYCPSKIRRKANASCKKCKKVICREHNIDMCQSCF

[1] = target: T2, GFP1 Right NT-betaN TAL-PBx (synthetic construct); test: cell_activity; conditions: tags: 3xFlag, SV40 NLS; chain copies: 2
T2 chain: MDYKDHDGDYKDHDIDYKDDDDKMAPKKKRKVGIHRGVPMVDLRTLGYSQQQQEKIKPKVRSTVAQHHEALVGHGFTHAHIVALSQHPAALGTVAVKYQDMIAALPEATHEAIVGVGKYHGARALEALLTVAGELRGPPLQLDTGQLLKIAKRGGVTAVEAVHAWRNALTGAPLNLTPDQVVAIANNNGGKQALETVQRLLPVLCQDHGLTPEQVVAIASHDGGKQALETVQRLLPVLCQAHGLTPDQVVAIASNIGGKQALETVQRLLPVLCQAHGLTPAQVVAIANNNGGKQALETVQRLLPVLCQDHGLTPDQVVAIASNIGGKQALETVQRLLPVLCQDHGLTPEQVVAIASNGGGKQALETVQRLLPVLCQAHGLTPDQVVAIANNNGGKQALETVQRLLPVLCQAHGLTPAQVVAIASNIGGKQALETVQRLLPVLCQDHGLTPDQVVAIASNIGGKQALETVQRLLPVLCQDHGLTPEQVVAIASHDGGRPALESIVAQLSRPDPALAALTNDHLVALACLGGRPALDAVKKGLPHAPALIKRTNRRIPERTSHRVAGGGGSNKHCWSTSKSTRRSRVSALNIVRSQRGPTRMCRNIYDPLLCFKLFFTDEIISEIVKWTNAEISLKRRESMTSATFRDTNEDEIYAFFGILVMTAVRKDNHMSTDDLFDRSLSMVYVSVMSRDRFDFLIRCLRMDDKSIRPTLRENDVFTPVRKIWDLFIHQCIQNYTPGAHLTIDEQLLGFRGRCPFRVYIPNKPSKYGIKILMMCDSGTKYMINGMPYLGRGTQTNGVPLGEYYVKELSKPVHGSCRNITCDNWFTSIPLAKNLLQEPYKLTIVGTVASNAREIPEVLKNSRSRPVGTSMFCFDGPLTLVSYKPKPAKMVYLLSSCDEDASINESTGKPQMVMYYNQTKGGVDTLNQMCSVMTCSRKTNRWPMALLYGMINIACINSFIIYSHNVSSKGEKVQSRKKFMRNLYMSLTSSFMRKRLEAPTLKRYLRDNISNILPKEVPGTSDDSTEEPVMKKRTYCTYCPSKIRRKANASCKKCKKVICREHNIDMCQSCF

GFP1 Right TAL-PBx = target: T3, GFP1 Right TAL-PBx (synthetic construct); test: cell_activity; conditions: tags: 3xFlag, SV40 NLS; chain copies: 2
T3 chain: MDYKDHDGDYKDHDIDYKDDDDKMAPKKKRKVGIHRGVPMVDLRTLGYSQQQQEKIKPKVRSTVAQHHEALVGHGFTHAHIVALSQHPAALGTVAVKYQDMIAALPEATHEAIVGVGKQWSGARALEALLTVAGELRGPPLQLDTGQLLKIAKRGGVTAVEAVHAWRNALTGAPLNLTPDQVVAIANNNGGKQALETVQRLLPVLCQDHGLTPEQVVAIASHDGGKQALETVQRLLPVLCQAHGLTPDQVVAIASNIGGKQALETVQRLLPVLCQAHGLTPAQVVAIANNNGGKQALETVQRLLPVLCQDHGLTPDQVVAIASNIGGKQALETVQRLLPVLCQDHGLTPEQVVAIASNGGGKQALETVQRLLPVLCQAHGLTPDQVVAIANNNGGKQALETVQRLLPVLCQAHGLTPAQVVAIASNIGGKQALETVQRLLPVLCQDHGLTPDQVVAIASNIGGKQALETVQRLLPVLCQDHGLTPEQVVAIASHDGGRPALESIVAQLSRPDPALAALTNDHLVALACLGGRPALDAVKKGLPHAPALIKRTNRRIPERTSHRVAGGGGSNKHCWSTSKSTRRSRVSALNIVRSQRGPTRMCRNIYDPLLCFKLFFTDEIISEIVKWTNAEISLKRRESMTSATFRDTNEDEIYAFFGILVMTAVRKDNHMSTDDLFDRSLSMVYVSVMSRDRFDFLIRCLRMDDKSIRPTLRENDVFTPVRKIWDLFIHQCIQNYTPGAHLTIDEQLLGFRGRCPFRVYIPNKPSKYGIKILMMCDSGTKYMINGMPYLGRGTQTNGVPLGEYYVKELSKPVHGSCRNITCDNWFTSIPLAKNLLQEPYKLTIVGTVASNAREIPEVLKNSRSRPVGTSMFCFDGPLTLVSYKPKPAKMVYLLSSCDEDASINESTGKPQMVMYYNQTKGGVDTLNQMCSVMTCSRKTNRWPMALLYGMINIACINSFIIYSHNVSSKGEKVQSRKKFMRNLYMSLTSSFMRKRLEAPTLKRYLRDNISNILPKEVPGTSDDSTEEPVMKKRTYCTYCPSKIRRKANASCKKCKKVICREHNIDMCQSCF

PAH1 Right TAL-PBx = target: T4, PAH1 Right TAL-PBx (synthetic construct); test: cell_activity; right only; conditions: tags: 3xFlag, SV40 NLS
T4 chain: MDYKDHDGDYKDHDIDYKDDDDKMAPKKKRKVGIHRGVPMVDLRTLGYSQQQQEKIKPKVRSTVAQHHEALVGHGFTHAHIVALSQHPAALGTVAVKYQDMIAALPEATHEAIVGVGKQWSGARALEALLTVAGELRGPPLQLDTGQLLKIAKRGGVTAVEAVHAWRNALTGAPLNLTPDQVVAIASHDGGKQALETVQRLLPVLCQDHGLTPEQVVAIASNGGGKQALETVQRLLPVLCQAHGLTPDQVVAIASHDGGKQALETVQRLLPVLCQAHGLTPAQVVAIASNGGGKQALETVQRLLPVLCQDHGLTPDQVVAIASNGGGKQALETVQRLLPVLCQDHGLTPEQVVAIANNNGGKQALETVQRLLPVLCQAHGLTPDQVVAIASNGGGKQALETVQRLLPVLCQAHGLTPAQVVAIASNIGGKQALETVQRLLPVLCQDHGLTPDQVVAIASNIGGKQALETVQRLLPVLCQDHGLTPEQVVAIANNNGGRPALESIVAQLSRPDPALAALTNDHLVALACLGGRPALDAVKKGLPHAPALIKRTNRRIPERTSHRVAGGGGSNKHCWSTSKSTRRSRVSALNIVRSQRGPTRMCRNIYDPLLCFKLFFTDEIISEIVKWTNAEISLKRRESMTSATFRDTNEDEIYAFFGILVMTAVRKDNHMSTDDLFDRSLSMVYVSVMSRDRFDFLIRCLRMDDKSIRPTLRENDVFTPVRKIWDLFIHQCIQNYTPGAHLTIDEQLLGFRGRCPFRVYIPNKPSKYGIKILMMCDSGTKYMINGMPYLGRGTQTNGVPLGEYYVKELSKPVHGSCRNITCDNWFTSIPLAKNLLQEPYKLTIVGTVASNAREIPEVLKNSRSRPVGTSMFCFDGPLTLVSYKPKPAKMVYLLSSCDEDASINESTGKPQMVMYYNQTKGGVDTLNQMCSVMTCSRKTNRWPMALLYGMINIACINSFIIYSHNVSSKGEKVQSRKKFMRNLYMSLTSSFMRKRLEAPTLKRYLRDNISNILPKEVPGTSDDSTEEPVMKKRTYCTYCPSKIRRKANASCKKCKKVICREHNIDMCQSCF

PAH1 Left TAL-PBx = target: T5, PAH1 Left TAL-PBx (synthetic construct); test: cell_activity; left only; conditions: tags: 3xFlag, SV40 NLS
T5 chain: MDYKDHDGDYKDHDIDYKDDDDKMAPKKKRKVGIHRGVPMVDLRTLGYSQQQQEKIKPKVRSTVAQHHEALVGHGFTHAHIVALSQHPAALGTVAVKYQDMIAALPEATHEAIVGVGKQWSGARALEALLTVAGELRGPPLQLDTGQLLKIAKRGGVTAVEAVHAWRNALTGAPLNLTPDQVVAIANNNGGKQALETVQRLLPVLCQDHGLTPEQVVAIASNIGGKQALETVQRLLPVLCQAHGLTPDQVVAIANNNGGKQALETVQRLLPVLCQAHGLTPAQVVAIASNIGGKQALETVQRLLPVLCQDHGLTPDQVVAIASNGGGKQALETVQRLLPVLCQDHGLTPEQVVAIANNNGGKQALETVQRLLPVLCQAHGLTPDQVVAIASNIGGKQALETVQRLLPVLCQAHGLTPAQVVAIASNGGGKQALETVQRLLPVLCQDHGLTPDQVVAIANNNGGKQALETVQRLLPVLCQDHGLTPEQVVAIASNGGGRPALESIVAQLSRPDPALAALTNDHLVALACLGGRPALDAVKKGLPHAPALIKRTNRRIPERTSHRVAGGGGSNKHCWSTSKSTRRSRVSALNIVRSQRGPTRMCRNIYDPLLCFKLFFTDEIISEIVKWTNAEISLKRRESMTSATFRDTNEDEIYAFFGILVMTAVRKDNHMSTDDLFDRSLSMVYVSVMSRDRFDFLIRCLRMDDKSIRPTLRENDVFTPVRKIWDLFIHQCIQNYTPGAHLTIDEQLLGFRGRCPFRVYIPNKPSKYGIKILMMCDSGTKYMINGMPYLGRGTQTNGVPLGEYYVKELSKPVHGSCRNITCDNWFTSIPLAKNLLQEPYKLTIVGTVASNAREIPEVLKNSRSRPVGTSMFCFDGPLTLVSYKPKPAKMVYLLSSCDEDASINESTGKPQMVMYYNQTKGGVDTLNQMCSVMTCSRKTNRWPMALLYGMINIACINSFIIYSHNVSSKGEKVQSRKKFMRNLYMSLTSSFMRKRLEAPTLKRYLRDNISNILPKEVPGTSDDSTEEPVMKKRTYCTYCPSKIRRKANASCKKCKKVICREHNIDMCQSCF

B1: GFP1R 13 bp 5'A (dsDNA)
DNA 1: AGCAGATGAACGCAATCTCACGGCTTAACTACTGACCTGAAGTTCATCTGCT
DNA 2: AGCAGATGAACTTCAGGTCAGTAGTTAAGCCGTGAGATTGCGTTCATCTGCT
activity (GFP1 Right NT-G TAL-PBx): 21.5 % GFP+ | activity [1]: 23.7 % GFP+ | activity (GFP1 Right TAL-PBx): 11.3 % GFP+

B2: GFP1R 13 bp 5'C (dsDNA)
DNA 1: CGCAGATGAACGCAATCTCACGGCTTAACTACTGACCTGAAGTTCATCTGCG
DNA 2: CGCAGATGAACTTCAGGTCAGTAGTTAAGCCGTGAGATTGCGTTCATCTGCG
activity (GFP1 Right NT-G TAL-PBx): 18.5 % GFP+ | activity [1]: 22.3 % GFP+ | activity (GFP1 Right TAL-PBx): 11.5 % GFP+

B3: PAH1 target (dsDNA)
DNA 1: TGAGATGATGTAACATCTATTCCATTAATTTCATTAACTTGCTTACAAGAGA
DNA 2: TCTCTTGTAAGCAAGTTAATGAAATTAATGGAATAGATGTTACATCATCTCA
activity (PAH1 Right TAL-PBx): 4.2 % GFP+ | activity (PAH1 Left TAL-PBx): 5.7 % GFP+

— patent US20240392262A1, “TRANSPOSASE AND USES THEREOF” (Poseida Therapeutics, Inc., published 2024)
